Test results taken from patent US6423827 (UNIVERSITY OF MEDICINE AND DENTISTRY OF NEW JERSEY, dated 2002).

Biological target: T1, recombinant rat LAMP (limbic system-associated membrane protein) expressed at the surface of CHO cells (CHOL … (rat, UniProt Q62813 29-315, PI (GPI) linkage to the membrane at the processed C-terminus, at or near Asn315)); N-linked glycosylation (apparent 55 kDa))
T1 construct: The C-terminal limit 315 is only 'at or near'; also called LAMP cDNA transfected cells
T1 sequence: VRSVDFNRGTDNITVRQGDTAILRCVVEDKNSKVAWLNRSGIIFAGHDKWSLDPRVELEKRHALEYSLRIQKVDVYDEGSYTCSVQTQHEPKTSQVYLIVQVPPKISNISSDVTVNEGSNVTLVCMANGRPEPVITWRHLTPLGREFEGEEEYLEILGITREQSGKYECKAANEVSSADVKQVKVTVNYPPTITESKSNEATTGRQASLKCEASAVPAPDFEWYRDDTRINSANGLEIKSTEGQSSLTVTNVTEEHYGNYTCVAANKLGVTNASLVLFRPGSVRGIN
Experiment: fluorescent beads coated with native LAMP, incubated with CHO cells expressing rat LAMP
Experimental: To test whether CHO_L cells can bind external LAMP, fluorescent synthetic beads of 2 μm diameter, which have reactive sites for covalently linking protein (Covasphere™ beads, Duke Scientific, Palo Alto, Calif.), were coated with native LAMP that had been released from hippocampal membranes with PI-specific phospholipase C. The beads were incubated with the recombinant cells and the extent of binding to the cell surface determined.

binding result: binds
B1: native rat LAMP from hippocampal membranes (receptor)
chain: VRSVDFNRGTDNITVRQGDTAILRCVVEDKNSKVAWLNRSGIIFAGHDKWSLDPRVELEKRHALEYSLRIQKVDVYDEGSYTCSVQTQHEPKTSQVYLIVQVPPKISNISSDVTVNEGSNVTLVCMANGRPEPVITWRHLTPLGREFEGEEEYLEILGITREQSGKYECKAANEVSSADVKQVKVTVNYPPTITESKSNEATTGRQASLKCEASAVPAPDFEWYRDDTRINSANGLEIKSTEGQSSLTVTNVTEEHYGNYTCVAANKLGVTNASLVLFRPGSVRGIN
modifications: N-linked glycosylation (apparent 64-68 kDa)
notes: The C-terminal limit 315 is only 'at or near'; also called native LAMP; external LAMP
